Experimental data: patent US20200165354A1 (WUXI BIOLOGICS IRELAND, published 2020)
Where a chain is given by its changes, count along the chain named.

Legend:
[1] = target: human PCSK9 with C-terminal 6-His tag, biotin-labelled (PCSK9-His-biotin) (human) (UniProt Q8NBP7); assay: ELISA binding to human PCSK9
[2] = target: human PCSK9 with C-terminal murine Fc, biotin-labelled (PCSK9-mFc-biotin) (human) (UniProt Q8NBP7); assay: blocking ELISA, binding of PCSK9 to LDL-R
[3] = target: human PCSK9 (construct not stated) (human) (UniProt Q8NBP7); assay: cell-based or functional assay
[4] = target: T1, rhesus (monkey) PCSK9, SPR analyte, construct not stated (rhesus monkey, UniProt A8T666 31-692, limits assumed); assay: SPR Biacore, antibody captured, monkey PCSK9 as analyte
T1 construct: also called rhesus PCSK9
Procedure: (§1) Antibody binding affinity to human and rhesus PCSK9 was detected by SPR assay using Biacore T200 (GE). Each antibody was captured on anti-murine IgG Fc antibody (GE) or anti-human IgG Fc antibody (Genway) immobilized CM5 sensor chip (GE). Human or rhesus PCSK9 at different concentrations were injected over the sensor chip at a flow rate of […] for an association phase of 180 s, followed by 1200 s dissociation. The chip was regenerated by 2 M MgCl₂ after each binding cycle.
(§2) The sensorgrams for blank surface and buffer channel are subtracted from the test sensorgrams. The experimental data was fitted by 1:1 model using Langmiur analysis. Molecular weight of 85 KDa was used to calculate the molar concentration of analyte.

[5] = target: T2, human PCSK9 (construct not stated) (human, UniProt Q8NBP7 31-692, limits assumed); assay: SPR Biacore, antibody captured, human PCSK9 as analyte
T2 construct: Analyte in SPR (molecular weight of 85 KDa used for the molar concentration), added at 20 ug/ml in LDL-uptake assays; biotin-labelled in the serum stability ELISA; also called wild type PCSK9; Biotin-labeled PCSK9
Procedure: as §1, §2

[6] = target: T2, human PCSK9 (construct not stated); assay: cell-based or functional assay
[7] = target: T3, human PCSK9 with C-terminal murine Fc, biotin-labelled (PCSK9-mFc-biotin) (human, UniProt Q8NBP7 31-692, limits assumed, biotin-labelled, site not stated); assay: competition ELISA, antibody premixed with PCSK9-mFc-biotin, binding to coated LDL-R
T3 construct: not shown: murine Fc (mFc) fused at the C-terminus
Procedure: Blocking assay by ELISA: Plates (Nunc) were coated with LDL-R overnight at 4° C. Hybridoma supernatants were mixed with 250 ng/ml PCSK9-mFc-biotin and incubated at 4° C. overnight. After blocking and washing, the mixture were added to the plates and incubated for 1 h. The plates were then washed and subsequently incubated with streptavidin-HRP. After washing, TMB substrate was added and the interaction was stopped by 2M HCl. The absorbance at 450 nm was read using a microplate reader (Molecular Device).
(§3) Binding and blocking activities were confirmed using purified antibodies (FIGS. 1 and 2).

[8] = target: T2, human PCSK9 (construct not stated); assay: SPR Biacore T200, antibody captured by anti-Fc antibody, PCSK9 as analyte, 1:1 fit
Procedure: as §1, §2
Kinetic affinity by SPR: the affinities of selected clones binding to human PCSK9 were measured by SPR assay.

[9] = target: T4, rhesus PCSK9-His (Sino Biological) (rhesus monkey, UniProt A8T666 31-692, limits assumed); assay: ELISA, rhesus PCSK9-His captured on anti-His antibody
T4 construct: also called rhesus monkey PCSK9; monkey PCSK9
Procedure: ELISA plates (Nunc) were coated with anti-His antibody (Genscript) at 1 μg/ml overnight at 4° C. After blocking and washing, 1 μg/ml rhesus PCSK9-His (Sino Biological) was added and incubated for 1 h. The antibody samples were added to the plates and incubate at room temperature for 1 h. The plates were then washed and subsequently incubated with secondary antibody goat anti mouse-IgG-Fc-HRP (Bethyl) for 45 min. After washing, TMB substrate was added and the interaction was stopped by 2M HCl. The absorbance at 450 nm was read using a microplate reader (Molecular Device).
Binding to monkey PCSK9: the affinity of selected antibodies binding to rhesus monkey PCSK9 was measured by ELISA (see FIG. 4).

[10] = target: T5, human PCSK9 with C-terminal 6-His tag, biotin-labelled (PCSK9-His-biotin) (human, UniProt Q8NBP7 31-692, biotin-labelled, site not stated); assay: ELISA, purified antibody on PCSK9-His-biotin captured on streptavidin
T5 construct: Made in HEK293, purified on Ni column
Procedure: Binding assay by ELISA: Plates (Nunc) were coated with Streptavidin at 1 μg/ml overnight at 4° C. After blocking and washing, 250 ng/ml PCSK9-His-biotin was added and incubated for 1 h. Then hybridoma supernatants were transferred to the plates and incubate at room temperature for 1 h. The plates were then washed and subsequently incubated with secondary antibody goat anti mouse-IgG-Fc-HRP (Bethyl) for 1 h. After washing, TMB substrate was added and the interaction was stopped by 2M HCl. The absorbance at 450 nm was read using a microplate reader (Molecular Device).
as §3

[11] = target: T2, human PCSK9 (construct not stated); assay: ELISA, biotin-labelled PCSK9 on a streptavidin plate, antibody in human serum, 0 days at 37 C, goat anti-human-HRP, OD450
Procedure: (§4) After incubation at 37° C., samples were rapidly frozen in dry-ice-ethanol bath and kept at −80° C. The samples were rapidly thawed before stability test. The plates were coated with streptavidin in Na₂CO₃/NaHCO₃ (pH 9.2) buffer at 4° C. overnight. The plates were washed with 0.1% Tween-PBS once before being blocked with 2% BSA/PBS. Biotin-labeled PCSK9 was added and incubated for 1 hr. After washing, then diluted serum samples were transferred to the plates and incubated for 1 hr at room temperature. Goat anti-human-HRP antibody were added to the wells and incubated for 1 hr. After washing, TMB substrate was added and the interaction was stopped by 2 M HCl. The absorbance at 450 nm was read using a microplate reader (Molecular Device).
(§5) The antibody binding to human PCSK9 was tested by ELISA after incubation in human serum at 37° C.

[12] = target: T2, human PCSK9 (construct not stated); assay: ELISA, biotin-labelled PCSK9 on a streptavidin plate, antibody in human serum, 3 days at 37 C, goat anti-human-HRP, OD450
Procedure: as §4, §5

[13] = target: T5, human PCSK9 with C-terminal 6-His tag, …; assay: ELISA binding to human PCSK9
[14] = target: T3, human PCSK9 with C-terminal murine Fc, …; assay: blocking ELISA, binding of PCSK9 to LDL-R
[15] = target: T2, human PCSK9 (construct not stated); assay: SPR, human PCSK9
[16] = target: T1, rhesus (monkey) PCSK9, SPR analyte, …; assay: SPR, monkey PCSK9
Procedure: as §1, §2
The binding activity of engineered antibody was evaluated by SPR affinity test.

T1 sequence (A8T666 31-692 limits assumed): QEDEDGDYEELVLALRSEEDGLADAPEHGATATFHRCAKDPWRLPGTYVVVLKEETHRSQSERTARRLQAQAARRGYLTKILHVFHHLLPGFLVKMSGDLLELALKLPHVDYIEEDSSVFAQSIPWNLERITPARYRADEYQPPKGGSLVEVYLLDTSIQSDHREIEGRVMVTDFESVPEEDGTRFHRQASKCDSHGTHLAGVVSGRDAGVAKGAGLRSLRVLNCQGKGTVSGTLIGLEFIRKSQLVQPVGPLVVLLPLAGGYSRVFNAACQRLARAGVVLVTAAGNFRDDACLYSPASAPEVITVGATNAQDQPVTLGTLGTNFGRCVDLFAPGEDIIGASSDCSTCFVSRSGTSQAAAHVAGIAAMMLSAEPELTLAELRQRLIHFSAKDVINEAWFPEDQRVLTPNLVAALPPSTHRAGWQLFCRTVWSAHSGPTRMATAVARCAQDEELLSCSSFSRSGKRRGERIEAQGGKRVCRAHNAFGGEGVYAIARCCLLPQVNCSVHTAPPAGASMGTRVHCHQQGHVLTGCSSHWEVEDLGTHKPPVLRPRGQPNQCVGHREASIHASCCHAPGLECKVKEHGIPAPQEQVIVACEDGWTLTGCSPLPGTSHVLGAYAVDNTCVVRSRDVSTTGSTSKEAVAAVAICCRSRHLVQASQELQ
T4 sequence (A8T666 31-692 limits assumed): as above

With Repatha (evolocumab) (antibody) the EC50 [1] was 0.038 nM, the IC50 [2] was 2.1 nM and the IC50 (nM), LDL-uptake assay, HepG2 [3] was 77.6 nM. It also gave an IC50 (nM), LDL-uptake assay, Huh-7 [3] of 98.2 nM.

B1: 2.6.6-z4-uIgG1k (antibody, V domains shown)
VH: QVQLVQSGAEVKKPGASVKVSCKASGYTFTSYWIHWVRQAPGQGLEWMGELNPSDGRTNYNEKFKNKATMTVDTSTSTVYMELSSLRSEDTAVYYCARSNFYGSSSFANWGQGTLVTVSS
VL: DIQMTQSPSSLSASVGDRVTITCSASSSVSYMNWYQQKPGKAPKLLIYGISNLASGVPSRFSGSGSGTDFTFTISSLQPEDIATYYCQQRSSYPPTFGGGTKVEIK
notes: Humanized antibody of 2.6.6 with a human constant region of IgG1 isotype, kappa light chain
B1 gave a Kd [4] of 0.19 nM, a koff [4] of 3.78e-06 s⁻¹ and a kon [4] of 19900 M⁻¹ s⁻¹. It also gave a Kd [5] of 2.11 nM, a koff [5] of 4.69e-05 s⁻¹ and a kon [5] of 22200 M⁻¹ s⁻¹.

B2: 2.12.12.4 (antibody, V domains shown)
VH: EVQLQQSGPELVKPGASVKMSCEASGYTFTNYVMHWVKQKPGQGLEWIGYINPYNDYIKYNEKFKGKATLTSDKSSSTTYLEVSSLTSEDSAVYYCGRQRYYGYRPYYAMDYWGQGTSVTVSS
VL: NIVLTQSPASLAVSLGQRATISCRASESVDGYGNVFMHWYQQKPGQPPKLLIYLASNLESGVPDRFSGSGSRTDFTLTIDPVEADDAATYYCQQNNKDPWTFGGGTKLEIK
notes: Mouse monoclonal antibody purified from hybridoma supernatant; also called parental murine antibody
B2 was tested, and the “IC50 (nM), LDL-uptake assay in HepG2 cells” value [6] was 72.5 nM, the IC50 [7] was 3 nM and the Kd [8] was 0.0531 nM. The koff [8] was 5.43e-05 s⁻¹, the kon [8] was 1.02e+06 M⁻¹ s⁻¹ and the Kd [9] was 0.5 nM. It also gave an EC50 [10] of 0.14 nM.

B3: 2.12.12.4-z4-uIgG4k (antibody, V domains shown)
VH: QVQLVQSGAEVKKPGSSVKVSCEASGYTFTNYVMHWVRQAPGQGLEWMGYINPYNDYIKYNEKFKGKATITADKSTSTAYMELSSLRSEDTAVYYCGRQRYYGYRPYYAMDYWGQGTLVTVSS
VL: B2 VL with N1D, L15P, S22T, D64A, R72G, D80N, D85N, A87T, T89N, L108V
notes: the chains here are derived by undoing them; Human constant region of IgG4 isotype, kappa light chain
Molecule B3 has a Kd [4] of 0.379 nM, a koff [4] of 0.000303 s⁻¹ and a kon [4] of 800000 M⁻¹ s⁻¹. For the same molecule, the “EC50 (read off the curve)” value [11] was ~0.06 nM, the “EC50 (read off the curve)” value [12] was ~0.07 nM and the EC50 [13] was 0.026 nM. For the same molecule, the Kd [5] was 0.0271 nM, the koff [5] was 2.67e-05 s⁻¹ and the kon [5] was 984000 M⁻¹ s⁻¹. The IC50 [14] was 1.9 nM.

B4: 2.12.12.4-v2-z4-uIgG4k (antibody, V domains shown)
VH: B3 VH
VL: B2 VL with N1D, L15P, S22T, D30E, D64A, R72G, D80N, A87T, T89N, L108V
notes: Engineered humanized antibody with a human constant region of IgG4 isotype, kappa light chain; also called engineered antibody lead
Molecule B4 has a Kd [15] of 0.0423 nM, a koff [15] of 4.32e-05 s⁻¹ and a kon [15] of 1.02e+06 M⁻¹ s⁻¹. It also gave a Kd [16] of 0.522 nM, a koff [16] of 0.000291 s⁻¹ and a kon [16] of 558000 M⁻¹ s⁻¹.

B5: 2.6.6 (antibody, V domains shown)
VH: QVQLQQPGAEVVKPGASVTVSCKASGYTFTSYWIHWVMQRPGQGLEWIGELNPSDGRTNYNEKFKNKATLTVDTSSSTVYMQLSSLTSEDSAVYYCARSNFYGSSSFANWGQGTLVTVSA
VL: EILLTQSPAIIAASPGEKVTITCSASSSVSYMNWYQQKPGSSPILWIYGISNLASGVPARFSGSGSGTSFSFTINNMEAEDVATYYCQQRSSYPPTFGGGTKLEIK
notes: Mouse monoclonal antibody purified from hybridoma supernatant; also called 2.6.6 (mouse antibody)
In the case of B5, the “IC50 (nM), LDL-uptake assay in HepG2 cells” value [6] is reported as 130 nM, the IC50 [7] is reported as 8.5 nM and the Kd [8] is reported as 1.08 nM. The koff [8] was 0.000148 s⁻¹, the kon [8] was 137000 M⁻¹ s⁻¹ and the Kd [9] was 0.6 nM. It also gave an EC50 [10] of 0.14 nM.
